Laboratory results taken from patent US5849493, “Screening assay for compounds stimulating somatostatin transcription factor -1 binding to an STF-1 binding site” (Research Development Foundation, dated 1997).

Columns and labels:
[1] = target: T1, Pbx1, in vitro translated protein (human, UniProt P40424); experiment: gel mobility shift, TSEII probe, reticulocyte lysate programmed with PBX RNA
Description: Isl1 H.D., homeodomain of the lim domain factor Isl1. PBX interaction motif-Isl1 H.D., STF-1-Isl1 fusion protein containing STF-1 PBX interaction motif region (amino acid residues 110–138) fused to the Isl1 homeodomain. cdx3 H.D., homeodomain of the pancreatic homeobox protein cdx3 (amino acid residues 143–253). PBX interaction motif-cdx3, fusion protein containing STF-1 PBX interaction motif region (amino acid residues 110–138) fused to the cdx3 homeodomain (amino acid residues 176–253). PBX interaction motif-STF-1, STF-1 polypeptide containing the PBX interaction motif region (110–138) fused to the STF-1 homeodomain (amino acid residues 140–215). STF-1 H.D. STF-1 homeodomain alone without the PBX interaction motif region. […] Cooperativity with PBX tested with homeodomain fusion proteins shown over each lane. Monomeric and heterodimeric complexes as labeled.
(§1) Gel mobility shift assays were performed exactly as described previously (20) using 0.1 ng of end-labeled double stranded oligonucleotide whose sequences are presented in FIG. 2C. For off-rate analysis, the TSEII probe was first incubated with the proteins at room temperature for 30 minutes, then a 1000-fold excess of unlabeled TSEII oligonucleotide was added and aliquots were loaded at various time points on a running gel. In supershift assays, TU6 nuclear cell extract was preincubated with 1 µl of Pbx (11) or STF-antiserum (20) for 15 minutes at room temperature before adding the TSEII probe.

[2] = target: T1, Pbx1, in vitro translated protein; experiment: gel mobility shift, TSEII probe
Description: Deletion endpoints in mutant STF-1 polypeptides are indicated over each lane. For example, Δ1-70 indicates STF-1 polypeptide lacking residues 1–70. Hox 140–215, STF-1 homeodomain polypeptide. […] H.D., STF-1 homeodomain (amino acid residues 140–215). Full length STF-1 protein extends from amino acid residues 1–284.
as §1

| Binder | binding result [1] | binding result [2] |
| --- | --- | --- |
| GST-PBX interaction motif-Isl1 H.D. fusion protein (other) EEPSRVHLPFPWMKSTKAHAWKSQWAGGAKQPEKTTRVRTVLNEKQLHTLRTCYAANPRPDALMKEQLVEMTGLSPRVIRVWFQNKRCKDKKRSIMMKQLQQ | no binding | – |
| GST-Isl1 H.D. fusion protein (other) KQPEKTTRVRTVLNEKQLHTLRTCYAANPRPDALMKEQLVEMTGLSPRVIRVWFQNKRCKDKKRSIMMKQLQQ | no binding | – |
| GST-PBX interaction motif-cdx3 fusion protein (other) EEPSRVHLPFPWMKSTKAHAWKSQWAGGALGSQVKTRTKDKYRVVYTDHQRLELEKEFHYSRYITIRRKAELAATLGLSERQVKIWFQNRRAKERKINKKKLQQQQQ | no binding | – |

Continued, values first:

| binding result [1] | binding result [2] | Binder |
| --- | --- | --- |
| no binding | – | GST-cdx3 H.D. fusion protein (other) PPGPAATGAAEQLSPSGQRRNLCEWMRKPAQPSLGSQVKTRTKDKYRVVYTDHQRLELEKEFHYSRYITIRRKAELAATLGLSERQVKIWFQNRRAKERKINKKKLQQQQQ |
| – | no binding | STF-1 homeodomain polypeptide Hox 140-215 (other) not shown |
